Measured values: PMC9482650, “Quantitative fragmentomics allow affinity mapping of interactomes” (Nature Communications, 2022)

T1: GRIP1_5, Q9Y3R0
T1 sequence (Q9Y3R0 568-668, limits assumed, looked up): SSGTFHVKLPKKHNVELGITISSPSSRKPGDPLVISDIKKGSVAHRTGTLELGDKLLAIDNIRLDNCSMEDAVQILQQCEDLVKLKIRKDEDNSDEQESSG

T2: PTPN13_1, Q12923
T2 sequence (Q12923 1088-1188, limits assumed, looked up): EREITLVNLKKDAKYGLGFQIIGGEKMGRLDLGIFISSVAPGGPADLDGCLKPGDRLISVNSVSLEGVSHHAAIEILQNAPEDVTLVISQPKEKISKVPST

T3: NHERF3_1, Q5T2W1
T3 sequence (Q5T2W1 4-100, limits assumed, looked up): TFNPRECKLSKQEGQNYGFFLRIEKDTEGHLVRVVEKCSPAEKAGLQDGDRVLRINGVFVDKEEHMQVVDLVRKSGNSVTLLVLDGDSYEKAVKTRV

T4: DFNB31_2, Q9P202
T4 sequence (Q9P202 274-371, limits assumed, looked up): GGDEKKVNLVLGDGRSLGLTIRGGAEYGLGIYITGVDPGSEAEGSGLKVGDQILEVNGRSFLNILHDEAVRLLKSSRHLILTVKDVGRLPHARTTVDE

T5: DVL3, Q92997
T5 sequence (Q92997 244-331, limits assumed, looked up): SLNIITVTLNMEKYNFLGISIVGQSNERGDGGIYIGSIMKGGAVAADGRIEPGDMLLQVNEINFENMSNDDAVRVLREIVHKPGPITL

T6: LNX2_2, Q8N448
T6 sequence (Q8N448 334-432, limits assumed, looked up): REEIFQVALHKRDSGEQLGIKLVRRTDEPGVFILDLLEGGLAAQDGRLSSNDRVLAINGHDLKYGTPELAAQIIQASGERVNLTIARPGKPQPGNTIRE

T7: LIN7C, Q9NUP9
T7 sequence (Q9NUP9 88-185, limits assumed, looked up): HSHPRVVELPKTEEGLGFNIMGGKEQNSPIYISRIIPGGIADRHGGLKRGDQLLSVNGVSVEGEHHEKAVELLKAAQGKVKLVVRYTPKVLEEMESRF

T8: LNX2_3, Q8N448
T8 sequence (Q8N448 463-564, limits assumed, looked up): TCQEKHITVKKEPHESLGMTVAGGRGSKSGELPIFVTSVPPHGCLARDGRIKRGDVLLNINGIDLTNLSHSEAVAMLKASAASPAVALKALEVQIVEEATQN

T9: MPP2, Q14168
T9 sequence (Q14168 180-250, limits assumed, looked up): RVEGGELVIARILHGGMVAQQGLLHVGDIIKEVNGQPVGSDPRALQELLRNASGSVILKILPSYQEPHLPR

T10: DLG3_3, Q92796
T10 sequence (Q92796 374-475, limits assumed, looked up): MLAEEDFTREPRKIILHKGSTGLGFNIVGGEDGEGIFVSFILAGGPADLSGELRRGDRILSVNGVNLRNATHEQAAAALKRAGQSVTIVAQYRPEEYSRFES

T11: GRIP1_7, Q9Y3R0
T11 sequence (Q9Y3R0 999-1096, limits assumed, looked up): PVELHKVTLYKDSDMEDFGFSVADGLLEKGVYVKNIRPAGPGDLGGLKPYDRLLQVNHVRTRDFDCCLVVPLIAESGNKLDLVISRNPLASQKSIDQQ

T12: DFNB31_3, Q9P202
T12 sequence (Q9P202 811-907, limits assumed, looked up): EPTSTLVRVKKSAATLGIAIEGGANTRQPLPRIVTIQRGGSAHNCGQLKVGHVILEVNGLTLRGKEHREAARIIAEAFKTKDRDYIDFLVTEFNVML


Columns and labels:
Assay in all cases: holdup assay
Set-up in all cases: key: below the threshold = too weak to quantify, mostly under pKd 3.1 to 4
Conditions in all cases: plain residues with an end cap or a label only (N-terminal biotin on a linker: ado-ado)
[1] = target: PTPN3, P26045
Sequence of PTPN3, P26045 (P26045 505-587): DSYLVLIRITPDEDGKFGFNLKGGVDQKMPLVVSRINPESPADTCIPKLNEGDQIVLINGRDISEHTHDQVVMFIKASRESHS

[2] = target: SCRIB_3, Q14160
Sequence of SCRIB_3, Q14160 (Q14160 999-1103): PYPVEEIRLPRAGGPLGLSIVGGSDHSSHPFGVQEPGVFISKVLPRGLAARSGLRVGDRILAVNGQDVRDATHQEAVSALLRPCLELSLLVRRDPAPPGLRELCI

[3] = target: T1, GRIP1_5, Q9Y3R0
[4] = target: MAGI2_3, Q86UL8
Sequence of MAGI2_3, Q86UL8 (Q86UL8 600-682): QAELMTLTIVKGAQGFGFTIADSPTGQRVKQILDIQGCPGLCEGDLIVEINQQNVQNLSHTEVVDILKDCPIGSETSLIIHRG

[5] = target: T2, PTPN13_1, Q12923
[6] = target: MAGI1_2, Q96QZ7
Sequence of MAGI1_2, Q96QZ7 (Q96QZ7 456-580): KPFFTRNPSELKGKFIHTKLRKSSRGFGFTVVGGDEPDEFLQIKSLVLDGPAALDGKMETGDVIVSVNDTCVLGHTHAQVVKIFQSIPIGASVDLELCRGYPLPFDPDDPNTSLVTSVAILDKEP

[7] = target: T3, NHERF3_1, Q5T2W1
[8] = target: T4, DFNB31_2, Q9P202
[9] = target: NHERF4_1, Q86UT5-2
Sequence of NHERF4_1, Q86UT5-2 (Q86UT5 other isoform, or with tags, fused parts or gaps): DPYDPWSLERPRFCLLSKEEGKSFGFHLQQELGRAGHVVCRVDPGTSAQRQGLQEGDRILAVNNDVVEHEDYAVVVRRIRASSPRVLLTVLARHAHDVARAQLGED

[10] = target: T5, DVL3, Q92997
[11] = target: T6, LNX2_2, Q8N448
[12] = target: T7, LIN7C, Q9NUP9
[13] = target: GRIP2_6, Q9C0E4
Sequence of GRIP2_6, Q9C0E4 (Q9C0E4 648-740): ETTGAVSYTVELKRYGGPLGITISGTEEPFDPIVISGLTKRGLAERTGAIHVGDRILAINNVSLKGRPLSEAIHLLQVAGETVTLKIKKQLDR

[14] = target: Inadl_4, Q8NI35
Sequence of Inadl_4, Q8NI35 (Q8NI35 547-651): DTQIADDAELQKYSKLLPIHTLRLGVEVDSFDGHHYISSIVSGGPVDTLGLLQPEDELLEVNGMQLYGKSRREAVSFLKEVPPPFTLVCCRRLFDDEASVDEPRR

[15] = target: T8, LNX2_3, Q8N448
[16] = target: T9, MPP2, Q14168
[17] = target: TJP2_1, Q9UDY2
Sequence of TJP2_1, Q9UDY2 (Q9UDY2 24-128): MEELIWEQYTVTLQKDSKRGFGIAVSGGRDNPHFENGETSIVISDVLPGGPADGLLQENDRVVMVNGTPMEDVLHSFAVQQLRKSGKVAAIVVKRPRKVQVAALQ

[18] = target: SCRIB_2, Q14160
Sequence of SCRIB_2, Q14160 (Q14160 857-960): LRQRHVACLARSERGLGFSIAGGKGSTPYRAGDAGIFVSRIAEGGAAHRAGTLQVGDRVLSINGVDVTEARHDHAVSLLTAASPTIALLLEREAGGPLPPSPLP

[19] = target: IL16_3, Q14005
Sequence of IL16_3, Q14005 (Q14005 1107-1207): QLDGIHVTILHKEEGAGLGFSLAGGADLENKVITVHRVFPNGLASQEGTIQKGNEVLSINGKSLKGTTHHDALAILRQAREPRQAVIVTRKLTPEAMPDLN

[20] = target: LIMK2, P53671
Sequence of LIMK2, P53671 (P53671 143-248): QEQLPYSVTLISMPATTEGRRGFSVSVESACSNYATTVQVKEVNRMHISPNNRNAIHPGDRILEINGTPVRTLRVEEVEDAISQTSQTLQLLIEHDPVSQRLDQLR

[21] = target: FRMPD3, Q5JV73
Sequence of FRMPD3, Q5JV73 (Q5JV73 12-100): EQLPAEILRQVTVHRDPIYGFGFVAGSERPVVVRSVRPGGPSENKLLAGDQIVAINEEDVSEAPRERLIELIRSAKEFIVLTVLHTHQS

[22] = target: T10, DLG3_3, Q92796
[23] = target: T11, GRIP1_7, Q9Y3R0
[24] = target: DLG1_1, Q12959
[25] = target: LNX1_1, Q8TBB1
Sequence of LNX1_1, Q8TBB1 (Q8TBB1 261-371): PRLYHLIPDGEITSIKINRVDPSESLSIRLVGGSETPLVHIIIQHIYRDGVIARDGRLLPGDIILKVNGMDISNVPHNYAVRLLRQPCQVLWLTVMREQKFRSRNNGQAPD

[26] = target: T12, DFNB31_3, Q9P202

| Binder | pKd [1] | pKd [2] | pKd [3] | pKd [4] | pKd [5] | pKd [6] | pKd [7] | pKd [8] | pKd [9] | pKd [10] | pKd [11] | pKd [12] | pKd [13] | pKd [14] | pKd [15] | pKd [16] | pKd [17] | pKd [18] | pKd [19] | pKd [20] | also measured |
| --- | --- | --- | --- | --- | --- | --- | --- | --- | --- | --- | --- | --- | --- | --- | --- | --- | --- | --- | --- | --- | --- |
| NVYGIESVKI [GRIA2, P42262] | below the threshold | 3.56 | 3.5 | below the threshold | below the threshold | below the threshold | below the threshold | below the threshold | 3.78 | below the threshold | 3.85 | below the threshold | 3.64 | below the threshold | below the threshold | below the threshold | 3.56 | 3.49 | below the threshold | below the threshold | pKd [21]: below the threshold; pKd [22]: below the threshold; pKd [23]: below the threshold; pKd [24]: below the threshold; pKd [25]: 4.07; pKd [26]: below the threshold |
| GIKKITSTAL [RPS6KA3, P51812] | 5 | 5.06 | below the threshold | 3.51 | below the threshold | 4.5 | 5.64 | below the threshold | 4.76 | below the threshold | below the threshold | below the threshold | 3.88 | below the threshold | 3.49 | below the threshold | 3.89 | 3.49 | below the threshold | below the threshold | pKd [21]: below the threshold; pKd [22]: 3.85; pKd [23]: 3.56; pKd [24]: 4.05; pKd [25]: 3.8; pKd [26]: 4.23 |
| NNNVVKVDSV [MTNR1A, P48039] | below the threshold | below the threshold | below the threshold | below the threshold | below the threshold | below the threshold | below the threshold | below the threshold | 3.51 | below the threshold | below the threshold | below the threshold | below the threshold | below the threshold | below the threshold | below the threshold | below the threshold | below the threshold | below the threshold | below the threshold | pKd [21]: below the threshold; pKd [22]: below the threshold; pKd [23]: below the threshold; pKd [24]: below the threshold; pKd [25]: below the threshold; pKd [26]: 3.93 |
| SVTSERETNI [SLC16A7, O60669] | 4.97 | 4.93 | below the threshold | below the threshold | below the threshold | below the threshold | 3.49 | below the threshold | below the threshold | below the threshold | below the threshold | 4.11 | below the threshold | below the threshold | below the threshold | below the threshold | below the threshold | 3.69 | below the threshold | below the threshold | pKd [21]: below the threshold; pKd [22]: below the threshold; pKd [23]: below the threshold; pKd [24]: 3.58; pKd [25]: below the threshold; pKd [26]: 3.97 |
| GEDRSPPTAL [MKNK1, Q9BUB5] | 4.06 | 4.57 | below the threshold | below the threshold | below the threshold | below the threshold | 3.71 | below the threshold | 4.34 | below the threshold | below the threshold | 4.02 | below the threshold | below the threshold | below the threshold | below the threshold | below the threshold | below the threshold | below the threshold | below the threshold | pKd [21]: below the threshold; pKd [22]: below the threshold; pKd [23]: below the threshold; pKd [24]: below the threshold; pKd [25]: below the threshold; pKd [26]: below the threshold |
